Assay results published in patent US20240158448A1, “MULTIVALENT NANO-'SELF' PEPTIDES AND USES THEREOF” (THE TRUSTEES OF THE UNIVERSITY OF PENNSYLVANIA, priority 2021, published 2024).

Target: human CD47 expressed on cells (red blood cells, K562 cells, THP-1 macrophages) (human) (UniProt Q08722)
Test: cell-based or functional assay

- % THP-1 macrophages phagocytosing opsonized RBCs: 30%
B1: mouse anti-human CD47 antibody B6H12 (BD Biosciences) (antibody, from another filing, V domains shown)
VH: EVQLVESGGDLVKPGGSLKLSCAASGFTFSGYGMSWVRQTPDKRLEWVATITSGGTYTYYPDSVKGRFTISRDNAKNTLYLQIDSLKSEDTAIYFCARSLAGNAMDYWGQGTSVTVSS
VL: DIVMTQSPATLSVTPGDRVSLSCRASQTISDYLHWYQQKSHESPRLLIKFASQSISGIPSRFSGSGSGSDFTLSINSVEPEDVGVYYCQNGHGFPRTFGGGTKLEIK
